Ten molecules from US20160129100A1 (UVIC INDUSTRY PARTNERSHIPS, published 2016) can be followed below.

Assay [1] concerns the target T1, Plasminogen-depleted human fibrinogen (human, UniProt P02671 20-629; P02675 31-491; P02679 27-437).
T1 construct: Bought protein, immobilized at 0.5 µg per well
T1 sequence 1: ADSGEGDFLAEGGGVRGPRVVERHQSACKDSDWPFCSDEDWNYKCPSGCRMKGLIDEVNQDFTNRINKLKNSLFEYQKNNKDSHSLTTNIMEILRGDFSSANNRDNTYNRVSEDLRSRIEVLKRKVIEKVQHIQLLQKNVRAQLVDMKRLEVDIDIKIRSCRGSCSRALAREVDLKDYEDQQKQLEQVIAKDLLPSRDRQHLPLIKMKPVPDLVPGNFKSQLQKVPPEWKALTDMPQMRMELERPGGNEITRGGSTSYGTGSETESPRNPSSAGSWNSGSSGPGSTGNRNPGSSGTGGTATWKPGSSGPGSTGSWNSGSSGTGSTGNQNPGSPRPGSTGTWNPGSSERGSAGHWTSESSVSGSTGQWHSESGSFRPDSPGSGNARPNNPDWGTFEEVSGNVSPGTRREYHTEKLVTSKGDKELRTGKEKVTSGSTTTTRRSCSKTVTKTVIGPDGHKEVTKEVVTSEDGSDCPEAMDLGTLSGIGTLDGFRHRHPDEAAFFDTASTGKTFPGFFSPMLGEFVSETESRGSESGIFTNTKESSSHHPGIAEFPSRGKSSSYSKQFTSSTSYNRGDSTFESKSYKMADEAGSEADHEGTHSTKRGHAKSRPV
T1 sequence 2: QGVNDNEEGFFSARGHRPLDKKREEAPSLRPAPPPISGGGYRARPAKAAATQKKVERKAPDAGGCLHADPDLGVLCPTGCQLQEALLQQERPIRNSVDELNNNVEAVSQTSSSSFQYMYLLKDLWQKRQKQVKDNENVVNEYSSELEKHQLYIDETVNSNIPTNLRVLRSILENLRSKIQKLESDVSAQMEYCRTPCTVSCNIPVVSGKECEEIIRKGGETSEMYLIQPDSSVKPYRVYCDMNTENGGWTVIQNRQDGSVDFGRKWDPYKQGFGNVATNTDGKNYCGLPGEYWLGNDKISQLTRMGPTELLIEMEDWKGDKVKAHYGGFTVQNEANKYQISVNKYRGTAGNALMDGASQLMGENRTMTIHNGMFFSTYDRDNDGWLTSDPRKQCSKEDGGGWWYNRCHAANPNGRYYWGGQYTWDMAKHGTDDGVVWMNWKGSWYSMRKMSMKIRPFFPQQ
T1 sequence 3: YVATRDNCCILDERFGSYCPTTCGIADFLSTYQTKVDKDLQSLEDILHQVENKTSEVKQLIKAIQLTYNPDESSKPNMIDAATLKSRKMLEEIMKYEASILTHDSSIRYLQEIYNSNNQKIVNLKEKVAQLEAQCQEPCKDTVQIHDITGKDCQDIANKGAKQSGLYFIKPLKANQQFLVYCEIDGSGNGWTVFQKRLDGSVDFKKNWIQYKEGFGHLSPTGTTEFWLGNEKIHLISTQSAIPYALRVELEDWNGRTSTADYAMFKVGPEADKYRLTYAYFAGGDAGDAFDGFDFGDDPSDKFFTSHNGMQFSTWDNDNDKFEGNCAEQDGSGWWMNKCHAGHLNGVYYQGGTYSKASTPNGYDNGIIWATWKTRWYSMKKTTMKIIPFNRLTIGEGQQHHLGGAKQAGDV
Nature of the assay: 96-well plate binding assay, immobilized host protein 0.5 µg/well, His-tagged peptide, A600.

The target of assay [2] is T2, fibronectin isolated from human plasma (human, UniProt P02751 32-2296).
T2 construct: Bought protein, immobilized at 0.5 µg per well
T2 sequence (P02751 other isoform, or with tags, fused parts or gaps limits assumed): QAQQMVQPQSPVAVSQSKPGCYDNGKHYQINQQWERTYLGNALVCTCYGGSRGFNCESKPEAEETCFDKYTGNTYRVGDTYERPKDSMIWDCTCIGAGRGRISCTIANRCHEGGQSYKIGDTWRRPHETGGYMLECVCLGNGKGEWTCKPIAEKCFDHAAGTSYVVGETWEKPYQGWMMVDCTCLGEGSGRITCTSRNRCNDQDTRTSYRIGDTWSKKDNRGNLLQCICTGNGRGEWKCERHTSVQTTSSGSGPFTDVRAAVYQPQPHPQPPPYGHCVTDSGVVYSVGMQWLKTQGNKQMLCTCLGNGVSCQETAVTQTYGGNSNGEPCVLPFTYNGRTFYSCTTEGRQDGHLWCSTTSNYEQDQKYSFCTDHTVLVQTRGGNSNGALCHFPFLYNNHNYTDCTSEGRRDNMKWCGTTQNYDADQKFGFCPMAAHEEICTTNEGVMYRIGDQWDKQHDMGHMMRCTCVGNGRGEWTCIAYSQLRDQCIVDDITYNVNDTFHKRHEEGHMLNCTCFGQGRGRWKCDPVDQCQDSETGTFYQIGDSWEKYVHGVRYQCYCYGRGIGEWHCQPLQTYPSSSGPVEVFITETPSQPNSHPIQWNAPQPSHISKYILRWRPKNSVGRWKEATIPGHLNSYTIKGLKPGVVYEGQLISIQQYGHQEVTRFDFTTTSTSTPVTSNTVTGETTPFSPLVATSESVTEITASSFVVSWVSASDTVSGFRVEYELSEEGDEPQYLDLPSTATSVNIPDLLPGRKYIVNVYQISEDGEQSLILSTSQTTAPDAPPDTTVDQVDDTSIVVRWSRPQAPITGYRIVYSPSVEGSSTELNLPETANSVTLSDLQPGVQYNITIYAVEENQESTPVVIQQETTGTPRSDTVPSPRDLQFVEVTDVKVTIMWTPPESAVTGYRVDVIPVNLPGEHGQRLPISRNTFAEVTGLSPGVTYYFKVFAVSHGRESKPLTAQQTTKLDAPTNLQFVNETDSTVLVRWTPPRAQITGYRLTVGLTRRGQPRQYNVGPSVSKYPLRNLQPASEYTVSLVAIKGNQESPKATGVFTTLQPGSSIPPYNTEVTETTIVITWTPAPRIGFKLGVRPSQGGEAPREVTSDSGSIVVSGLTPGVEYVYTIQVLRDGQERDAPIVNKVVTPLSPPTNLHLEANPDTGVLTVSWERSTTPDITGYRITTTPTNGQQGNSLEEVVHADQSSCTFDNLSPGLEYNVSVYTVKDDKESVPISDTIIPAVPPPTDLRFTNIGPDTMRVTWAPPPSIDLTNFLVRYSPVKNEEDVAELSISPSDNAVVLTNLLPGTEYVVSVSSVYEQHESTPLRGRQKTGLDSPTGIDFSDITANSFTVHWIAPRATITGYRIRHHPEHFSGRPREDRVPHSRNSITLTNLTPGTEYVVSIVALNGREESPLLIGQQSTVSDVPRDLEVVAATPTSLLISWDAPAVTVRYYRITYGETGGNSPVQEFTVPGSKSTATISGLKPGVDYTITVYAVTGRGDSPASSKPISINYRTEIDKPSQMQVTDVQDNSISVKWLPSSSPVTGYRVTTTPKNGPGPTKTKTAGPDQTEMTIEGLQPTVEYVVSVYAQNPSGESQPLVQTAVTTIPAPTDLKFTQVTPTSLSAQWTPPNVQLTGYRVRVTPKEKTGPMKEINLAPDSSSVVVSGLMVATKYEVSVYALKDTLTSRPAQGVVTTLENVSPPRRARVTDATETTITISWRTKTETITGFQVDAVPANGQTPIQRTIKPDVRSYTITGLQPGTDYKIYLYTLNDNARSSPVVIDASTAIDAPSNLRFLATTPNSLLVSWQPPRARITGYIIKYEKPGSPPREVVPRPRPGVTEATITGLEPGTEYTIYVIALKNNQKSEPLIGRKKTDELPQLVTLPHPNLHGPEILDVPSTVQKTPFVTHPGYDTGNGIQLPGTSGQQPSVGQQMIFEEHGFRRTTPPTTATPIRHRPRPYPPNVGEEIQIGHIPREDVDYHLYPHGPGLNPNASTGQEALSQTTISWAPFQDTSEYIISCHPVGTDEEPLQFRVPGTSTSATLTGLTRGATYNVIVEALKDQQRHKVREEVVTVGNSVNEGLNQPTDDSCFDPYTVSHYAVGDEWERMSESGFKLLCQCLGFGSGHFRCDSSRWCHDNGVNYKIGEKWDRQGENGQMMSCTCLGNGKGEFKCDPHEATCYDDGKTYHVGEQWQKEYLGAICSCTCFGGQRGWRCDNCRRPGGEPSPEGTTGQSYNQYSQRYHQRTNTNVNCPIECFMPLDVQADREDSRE
The description is as above.

The target of a further assay is T3, Human collagen type I (human, UniProt P02452 162-1218; P08123 80-1119).
T3 construct: Bought protein, immobilized at 0.5 µg per well; also called collagen I
T3 sequence (P02452 162-1218, chain 1 of 2): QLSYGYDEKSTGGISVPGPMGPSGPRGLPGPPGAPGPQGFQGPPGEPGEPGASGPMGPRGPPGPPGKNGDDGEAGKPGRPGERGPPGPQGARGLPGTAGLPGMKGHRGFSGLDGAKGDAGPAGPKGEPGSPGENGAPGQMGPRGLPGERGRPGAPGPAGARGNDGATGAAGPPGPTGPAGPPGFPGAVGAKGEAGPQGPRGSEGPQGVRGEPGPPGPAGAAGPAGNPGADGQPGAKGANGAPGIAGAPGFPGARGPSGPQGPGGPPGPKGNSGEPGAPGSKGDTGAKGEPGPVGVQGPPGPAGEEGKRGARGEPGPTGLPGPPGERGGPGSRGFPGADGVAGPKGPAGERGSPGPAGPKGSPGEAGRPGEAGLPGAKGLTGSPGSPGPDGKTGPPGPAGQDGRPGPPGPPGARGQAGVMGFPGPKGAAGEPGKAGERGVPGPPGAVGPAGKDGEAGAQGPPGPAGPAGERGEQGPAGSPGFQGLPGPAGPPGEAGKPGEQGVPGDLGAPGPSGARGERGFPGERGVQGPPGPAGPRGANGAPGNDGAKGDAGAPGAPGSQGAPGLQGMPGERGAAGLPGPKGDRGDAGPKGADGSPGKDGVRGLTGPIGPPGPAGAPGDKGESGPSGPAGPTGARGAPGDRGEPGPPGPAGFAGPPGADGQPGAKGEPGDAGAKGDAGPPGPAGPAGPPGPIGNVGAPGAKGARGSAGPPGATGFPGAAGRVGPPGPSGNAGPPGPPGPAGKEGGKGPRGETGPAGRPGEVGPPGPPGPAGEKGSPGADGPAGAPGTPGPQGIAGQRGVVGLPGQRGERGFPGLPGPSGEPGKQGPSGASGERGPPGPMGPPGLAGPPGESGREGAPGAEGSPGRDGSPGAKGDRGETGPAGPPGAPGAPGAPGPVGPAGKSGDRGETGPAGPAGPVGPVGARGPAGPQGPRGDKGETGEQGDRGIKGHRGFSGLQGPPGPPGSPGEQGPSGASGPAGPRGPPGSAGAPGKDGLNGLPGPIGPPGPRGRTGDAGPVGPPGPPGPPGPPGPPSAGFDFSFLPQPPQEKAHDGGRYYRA
T3 sequence (P08123 80-1119, chain 2 of 2): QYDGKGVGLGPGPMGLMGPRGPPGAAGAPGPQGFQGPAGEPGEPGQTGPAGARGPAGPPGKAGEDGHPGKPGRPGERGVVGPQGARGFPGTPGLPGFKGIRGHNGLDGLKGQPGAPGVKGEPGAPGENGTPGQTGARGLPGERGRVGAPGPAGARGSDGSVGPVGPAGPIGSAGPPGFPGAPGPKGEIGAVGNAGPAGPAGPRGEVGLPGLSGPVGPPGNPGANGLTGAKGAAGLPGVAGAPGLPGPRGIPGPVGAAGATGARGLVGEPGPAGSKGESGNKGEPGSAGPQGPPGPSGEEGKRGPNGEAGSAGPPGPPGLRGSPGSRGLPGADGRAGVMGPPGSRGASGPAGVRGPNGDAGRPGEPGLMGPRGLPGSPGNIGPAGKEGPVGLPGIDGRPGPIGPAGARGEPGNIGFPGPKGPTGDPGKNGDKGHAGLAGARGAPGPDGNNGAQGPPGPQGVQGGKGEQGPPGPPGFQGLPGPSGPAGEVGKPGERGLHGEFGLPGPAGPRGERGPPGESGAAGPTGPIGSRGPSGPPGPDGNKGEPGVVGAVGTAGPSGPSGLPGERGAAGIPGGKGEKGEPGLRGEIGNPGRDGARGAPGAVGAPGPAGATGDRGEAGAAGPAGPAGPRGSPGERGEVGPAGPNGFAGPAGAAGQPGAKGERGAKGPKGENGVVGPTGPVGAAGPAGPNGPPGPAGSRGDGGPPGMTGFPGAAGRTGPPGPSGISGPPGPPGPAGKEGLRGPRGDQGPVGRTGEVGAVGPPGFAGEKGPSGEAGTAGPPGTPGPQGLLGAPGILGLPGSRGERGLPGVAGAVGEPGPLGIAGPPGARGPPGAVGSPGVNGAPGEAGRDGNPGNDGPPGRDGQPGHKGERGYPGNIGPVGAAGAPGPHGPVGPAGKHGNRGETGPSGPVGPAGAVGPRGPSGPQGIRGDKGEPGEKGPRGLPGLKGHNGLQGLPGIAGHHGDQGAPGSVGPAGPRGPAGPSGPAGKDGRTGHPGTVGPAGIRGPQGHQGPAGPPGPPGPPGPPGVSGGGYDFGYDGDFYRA
The assay is described as above.

Assay [3] has as its target T1, Plasminogen-depleted human fibrinogen. In words: 96-well plate binding assay, immobilized host protein, His-tagged peptide, A600.
The target is the same in assay [4]. Nature of the assay: 96-well plate binding assay, immobilized host protein 0.5 µg/well, peptide 2.0 µg/well, A600.

B1: Tp0751 peptide p3 (peptide)
peptide: HHHHHHTDPRSHGNAPPAPVGGAAQTHTQP
notes: One of 13 overlapping synthetic 24-mers spanning Tp0751 T46-P237; also called peptide 3
For B1, the binding result (in assay [1]; in assay [2]; with Human collagen type I) was “no binding (tested: 2.0 µg per well)” throughout.

B2: Tp0751 peptide p8 (peptide)
peptide: HHHHHHFFDREHAEITFSRASVQEIFLVDS
notes: One of 13 overlapping synthetic 24-mers spanning Tp0751 T46-P237; also called negative control peptide
In the case of B2, the binding result (in assay [1]; in assay [2]; with Human collagen type I) was “no binding (tested: 2.0 µg per well)” each time.

B3: Tp0751 peptide p5 (peptide)
peptide: HHHHHHAMRIALWNRATHGEQGALQHLLAG
notes: One of 13 overlapping synthetic 24-mers spanning Tp0751 T46-P237; also called peptide 5
With B3, the binding result (in assay [1]; in assay [2]; with Human collagen type I) was “no binding (tested: 2.0 µg per well)” throughout.

B4: Tp0751 peptide p10 (peptide)
peptide: HHHHHHRKTVSFLTRNTAISSIRRRLEVTF
notes: One of 13 overlapping synthetic 24-mers spanning Tp0751 T46-P237; also called peptide 10
With B4, the binding result in assay [3] is recorded as “binds”.

B5: scrambled version of Tp0751 peptide 6 (p6scr) (peptide)
peptide: HHHHHHTSNDWGQSLAILHEPQLGILQAGI
notes: Scrambled synthetic peptide
As for B5, the binding result (in assay [1]; in assay [2]; with Human collagen type I) was “no binding (tested: 2.0 µg per well)” in each case.

B6: scrambled version of Tp0751 peptide 10 (p10scr) (peptide)
peptide: HHHHHHTSRVKLTISFERSLVNRTRTARFI
notes: Scrambled synthetic peptide; also called p10 scrambled peptide; scrambled version of peptide 10
As to B6, in assay [3], the binding result is recorded as “binds”.

B7: scrambled version of Tp0751 peptide 4 (p4scr) (peptide)
peptide: HHHHHHMRLTPGWHTANQIRPQAQGVATAA
notes: Scrambled synthetic peptide
For the molecule B7, the binding result (in assay [1]; in assay [2]; with Human collagen type I) was “no binding (tested: 2.0 µg per well)” each time.

B8: Tp0751 peptide p6 (peptide)
peptide: HHHHHHQGALQHLLAGLWIQTEISPNSGDI
notes: One of 13 overlapping synthetic 24-mers spanning Tp0751 T46-P237; also called peptide 6
For B8, the binding result in assay [4] is recorded as “binds”.

B9: Tp0751 peptide p7 (peptide)
peptide: HHHHHHTEISPNSGDIHPLLFFDREHAEIT
notes: One of 13 overlapping synthetic 24-mers spanning Tp0751 T46-P237; also called peptide 7
B9: the binding result (in assay [1]; in assay [2]; in the assay with Human collagen type I) was “no binding (tested: 2.0 µg per well)” each time.

B10: Tp0751 peptide p11 (peptide)
peptide: HHHHHHSIRRRLEVTFESHEVIHVRAVEDV
notes: also called peptide 11
Turning to B10, the binding result in assay [4] is given as “binds”.
